Changes are numbered by the printed parent chain. “And” between values parts separate entries of the source, which are not always exact repeats. Equal entries are not always repeated. Where two headings read alike, the source gives them in different places.
Assays:
[1] = biological target: T1, mouse FcRn (His-tagged, Sino Biological CT009-H08H) (mouse, UniProt Q61559 22-297); assay: BLI summary table, mFcRn, pH 5.8
T1 construct: also called mFcRn
T1 sequence (looked up): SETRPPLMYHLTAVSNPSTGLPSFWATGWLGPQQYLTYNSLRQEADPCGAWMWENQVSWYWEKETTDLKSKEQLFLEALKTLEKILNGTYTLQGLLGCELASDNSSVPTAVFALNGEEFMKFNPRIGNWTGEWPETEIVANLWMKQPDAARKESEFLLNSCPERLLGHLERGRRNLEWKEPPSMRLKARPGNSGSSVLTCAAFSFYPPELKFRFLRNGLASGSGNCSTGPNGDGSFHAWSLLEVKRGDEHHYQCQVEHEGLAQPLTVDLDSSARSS

[2] = biological target: T1, mouse FcRn (His-tagged, Sino Biological …); assay: BLI summary table, mFcRn, pH 5.8; remark: listed apart in the source
[3] = biological target: T1, mouse FcRn (His-tagged, Sino Biological …); assay: BLI summary table, mFcRn, pH 5.8; remark: listed apart in the source
[4] = biological target: T2, mouse FcγRIV (His-tagged, Sino Biological 50036-M08H) (mouse, UniProt A0A0B4J1G0 21-203); assay: BLI summary table, mFcgRIV, pH 7.2
T2 construct: also called mFcγRIV; not shown: the histidine tag (and any linker) of the Sino Biological construct 50036-M08H
T2 sequence: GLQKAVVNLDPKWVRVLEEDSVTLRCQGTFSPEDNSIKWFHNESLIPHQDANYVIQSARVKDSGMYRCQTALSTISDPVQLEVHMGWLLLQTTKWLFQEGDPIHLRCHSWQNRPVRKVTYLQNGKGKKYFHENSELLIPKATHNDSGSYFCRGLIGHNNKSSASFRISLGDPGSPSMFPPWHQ

[5] = biological target: T2, mouse FcγRIV (His-tagged, Sino …); assay: BLI summary table, mFcgRIV, pH 7.2; remark: listed apart in the source
[6] = biological target: T2, mouse FcγRIV (His-tagged, Sino …); assay: BLI summary table, mFcgRIV, pH 7.2; remark: listed apart in the source
[7] = biological target: T3, mouse FcγRIII (His-tagged, Sino Biological 50326-M08H) (mouse, UniProt P08508 31-215); assay: BLI summary table, mFcgRIII, pH 7.2
T3 construct: also called mFcγRIII
T3 sequence (looked up): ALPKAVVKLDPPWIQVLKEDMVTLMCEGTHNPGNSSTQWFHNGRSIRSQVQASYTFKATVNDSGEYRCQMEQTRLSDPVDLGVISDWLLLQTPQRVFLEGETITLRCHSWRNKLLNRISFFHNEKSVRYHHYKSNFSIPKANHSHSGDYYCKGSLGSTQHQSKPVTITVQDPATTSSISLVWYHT

[8] = biological target: T4, mouse FcγRIIb (His-tagged, Sino Biological 50030-M08H) (mouse, UniProt P08101 30-217); assay: BLI summary table, mFcgRIIb, pH 7.2
T4 construct: also called mFcγRIIb
T4 sequence (looked up): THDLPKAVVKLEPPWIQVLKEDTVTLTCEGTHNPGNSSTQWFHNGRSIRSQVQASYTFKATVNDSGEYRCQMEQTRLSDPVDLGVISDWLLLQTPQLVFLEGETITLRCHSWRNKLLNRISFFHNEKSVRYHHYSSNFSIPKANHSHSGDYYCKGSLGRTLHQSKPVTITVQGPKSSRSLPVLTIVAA

[9] = biological target: T3, mouse FcγRIII (His-tagged, Sino …); assay: BLI summary table, mFcgRIII, pH 7.2; remark: listed apart in the source
[10] = biological target: T4, mouse FcγRIIb (His-tagged, Sino …); assay: BLI summary table, mFcgRIIb, pH 7.2; remark: listed apart in the source
[11] = biological target: T3, mouse FcγRIII (His-tagged, Sino …); assay: BLI summary table, mFcgRIII, pH 7.2; remark: listed apart in the source
[12] = biological target: T4, mouse FcγRIIb (His-tagged, Sino …); assay: BLI summary table, mFcgRIIb, pH 7.2; remark: listed apart in the source
[13] = biological target: T1, mouse FcRn (His-tagged, Sino Biological …); assay: BLI (Octet QK384): His-tagged mFcRn on anti-Penta-HIS biosensor, antibody as analyte, PBS pH 5.8, global 1:1 fit; experiment 2
[14] = biological target: T2, mouse FcγRIV (His-tagged, Sino …); assay: BLI (Octet QK384): His-tagged receptor on anti-Penta-HIS biosensor, antibody as analyte, PBS pH 7.2, global 1:1 fit; experiment 2
[15] = biological target: T3, mouse FcγRIII (His-tagged, Sino …); assay: as above
[16] = biological target: T4, mouse FcγRIIb (His-tagged, Sino …); assay: as above
[17] = biological target: T2, mouse FcγRIV (His-tagged, Sino …); assay: BLI (Octet QK384): His-tagged receptor on anti-Penta-HIS biosensor, antibody as analyte, PBS pH 7.2
[18] = biological target: T1, mouse FcRn (His-tagged, Sino Biological …); assay: BLI (Octet QK384): His-tagged mFcRn on anti-Penta-HIS biosensor, antibody as analyte, PBS pH 5.8, global 1:1 fit
[19] = biological target: T3, mouse FcγRIII (His-tagged, Sino …); assay: BLI (Octet QK384): His-tagged receptor on anti-Penta-HIS biosensor, antibody as analyte, PBS pH 7.2, global 1:1 fit
[20] = biological target: T4, mouse FcγRIIb (His-tagged, Sino …); assay: as above
[21] = biological target: T2, mouse FcγRIV (His-tagged, Sino …); assay: BLI (Octet QK384): His-tagged receptor on anti-Penta-HIS biosensor, antibody as analyte, PBS pH 7.2; remark: listed apart in the source
[22] = biological target: T3, mouse FcγRIII (His-tagged, Sino …); assay: as above
[23] = biological target: T4, mouse FcγRIIb (His-tagged, Sino …); assay: as above
[24] = biological target: T1, mouse FcRn (His-tagged, Sino Biological …); assay: BLI (Octet QK384): His-tagged mFcRn on anti-Penta-HIS biosensor, antibody as analyte, PBS pH 5.8, global 1:1 fit; remark: listed apart in the source

B1: 4M2-C12 mIgG2a (antibody)
heavy: EVKLVESGPGLVKPSQSLSLTCTVTGYSITSDYAWNWIRQFPGNKLEWMGYITYSGNISYNPSLRSRISITRDTSKNQFFLQLNSVTPEDTATYSCARSLYYPWYFDVWGAGTTVTVSSAKTTAPSVYPLAPVCGDTTGSSVTLGCLVKGYFPEPVTLTWNSGSLSSGVHTFPAVLQSDLYTLSSSVTVTSSTWPSQSITCNVAHPASSTKVDKKIEPRGPTIKPCPPCKCPAPNLLGGPSVFIFPPKIKDVLMISLSPIVTCVVVDVSEDDPDVQISWFVNNVEVHTAQTQTHREDYNSTLRVVSALPIQHQDWMSGKEFKCKVNNKDLPAPIERTISKPKGSVRAPQVYVLPPPEEEMTKKQVTLTCMVTDFMPEDIYVEWTNNGKTELNYKNTEPVLDSDGSYFMYSKLRVEKKNWVERNSYSCSVVHEGLHNHHTTKSFSRTPGK
light: DIVITQTPAILSTSPGEKVTMTCRASSSVGYIHWYQQKPGSSPKPWIYATSNLASGVPARFSGSGSGTSNSLTITRVEAEDAATYYCQQWSSYPPITFGGGTKLEVKRADAAPTVSIFPPSSEQLTSGGASVVCFLNNFYPKDINVKWKIDGSERQNGVLNSWTDQDSKDSTYSMSSTLTLTKDEYERHNSYTCEATHKTSTSPIVKSFNRNEC
notes: mouse IgG2a format, made in CHO cells; also called 4M2-C12 IgG2a
With B1 the kon [1] was 190000 M⁻¹ s⁻¹ and 220000 M⁻¹ s⁻¹, the koff [2] was 0.0059 s⁻¹ and 0.011 s⁻¹ and the Kd [3] was 31.5 nM and 49.5 nM. For the same binder, the kon [4] was 96000 M⁻¹ s⁻¹ and 92000 M⁻¹ s⁻¹, the koff [5] was 0.025 s⁻¹ and 0.034 s⁻¹ and the Kd [6] was 258 nM and 372 nM. For the same binder, the kon [7] was 55000 M⁻¹ s⁻¹ and 67000 M⁻¹ s⁻¹, the kon [8] was 51000 M⁻¹ s⁻¹ and 55000 M⁻¹ s⁻¹ and the koff [9] was 0.044 s⁻¹ and 0.066 s⁻¹. The koff [10] was 0.045 s⁻¹ and 0.12 s⁻¹, the Kd [11] was 794 nM and 977 nM and the Kd [12] was 876 nM and 2190 nM. The Kd [13] was 49.6 nM, the koff [13] was 0.011 s⁻¹ and the kon [13] was 220000 M⁻¹ s⁻¹. It also gave a Kd [14] of 372 nM, a koff [14] of 0.034 s⁻¹ and a kon [14] of 92000 M⁻¹ s⁻¹. It also gave a Kd [15] of 977 nM, a koff [15] of 0.066 s⁻¹ and a kon [15] of 67000 M⁻¹ s⁻¹. For the same binder, the Kd [16] was 2190 nM, the koff [16] was 0.12 s⁻¹ and the kon [16] was 55000 M⁻¹ s⁻¹.

B2: 4M2-C12 mIgG1 (antibody)
heavy chain: EVKLVESGPGLVKPSQSLSLTCTVTGYSITSDYAWNWIRQFPGNKLEWMGYITYSGNISYNPSLRSRISITRDTSKNQFFLQLNSVTPEDTATYSCARSLYYPWYFDVWGAGTTVTVSSAKTTPPSVYPLAPGSAAQTNSMVTLGCLVKGYFPEPVTVTWNSGSLSSGVHTFPAVLQSDLYTLSSSVTVPSSTWPSETVTCNVAHPASSTKVDKKIVPRDCGCKPCICTVPEVSSVFIFPPKPKDVLTITLTPKVTCVVVDISKDDPEVQFSWFVDDVEVHTAQTQPREEQFNSTFRSVSELPIMHQDWLNGKEFKCRVNSAAFPAPIEKTISKTKGRPKAPQVYTIPPPKEQMAKDKVSLTCMITDFFPEDITVEWQWNGQPAENYKNTQPIMNTNGSYFVYSKLNVQKSNWEAGNTFTCSVLHEGLHNHHTEKSLSHSPGK
light chain: B1 light
B2 showed a kon [1] of 170000 M⁻¹ s⁻¹, a koff [2] of 0.016 s⁻¹ and a Kd [3] of 93.9 nM. It also gave a kon [7] of 270000 M⁻¹ s⁻¹, a kon [8] of 90000 M⁻¹ s⁻¹ and a koff [9] of 0.125 s⁻¹. It also gave a koff [10] of 0.117 s⁻¹, a Kd [11] of 455 nM and a Kd [12] of 1300 nM. The binding result [17] was “no binding”, the Kd [18] was 93.9 nM and the koff [18] was 0.016 s⁻¹. It also gave a kon [18] of 170000 M⁻¹ s⁻¹, a Kd [19] of 455 nM and a koff [19] of 0.125 s⁻¹. It also gave a kon [19] of 270000 M⁻¹ s⁻¹, a Kd [20] of 1300 nM and a koff [20] of 0.117 s⁻¹. For the same binder, the kon [20] was 90000 M⁻¹ s⁻¹.

B3: 4M2-C12 mIgG2a LALA PG (antibody)
heavy: B1 heavy with L236A, L237A, P331G
light: B1 light
For B3, the kon [1] was 270000 M⁻¹ s⁻¹, the koff [2] was 0.0097 s⁻¹ and the Kd [3] was 35.8 nM. B3: no binding [21]; no binding [22]; no binding [23]. The Kd [24] was 35.8 nM, the koff [24] was 0.0097 s⁻¹ and the kon [24] was 270000 M⁻¹ s⁻¹.

From patent US20250313631A1 (HUMMINGBIRD BIOSCIENCE PTE, published 2025)
